Assay results reported in paper PMC9563779 (Cancers, 2022).

T1: N-terminally truncated 20 mer without methionine-611 (612-622) (Homo sapiens)
T1 construct: source: synthetic peptide, immobilised on a cellulose membrane (PepSpots, JPT Peptide Technologies)
T1 chain: PIWKFPDEEGA

T2: N-terminally truncated 20 mer without proline-612 (613-622) (Homo sapiens)
T2 construct: source: synthetic peptide, immobilised on a cellulose membrane (PepSpots, JPT Peptide Technologies)
T2 chain: IWKFPDEEGA

T3: N-terminally truncated 20 mer without isoleucine-613 (614-622) (Homo sapiens)
T3 construct: source: synthetic peptide, immobilised on a cellulose membrane (PepSpots, JPT Peptide Technologies)
T3 chain: WKFPDEEGA

T4: peptide 1 of the overlapping 15mer peptides covering the p95HER2 extracellular domain (Homo sapiens, UniProt P04626)
T4 construct: first 15mer of the p95HER2 extracellular domain, containing MPIW; source: synthetic peptide, immobilised on a cellulose membrane (PepSpots, JPT Peptide Technologies)
T4 chain: MPIWKFPDEEGACQP

T5: 20 mer epitope peptide GVKPDLSYMPIWKFPDEEGA (region 603-622 in HER2) (Homo sapiens)
T5 construct: region 603-622 in HER2, spanning the N terminus of the p95HER2 extracellular domain; source: synthetic peptide, immobilised on a cellulose membrane (PepSpots, JPT Peptide Technologies)
T5 chain: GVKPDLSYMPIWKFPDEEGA


Assays:
[1] = molecular target: T6, 611-CTF-p95HER2 (611-carboxy terminal fragment of HER2) on p95HER2-T47D cells (Homo sapiens, UniProt P04626); experiment: flow cytometry on cells; Oslo-2 mAb 10 μg/mL on cell lines, 30 min at 4 °C in FACS buffer (PBS pH 7, 2% FBS, 2 mM EDTA), labelled secondary antibody; conditions: one partner purified
T6 construct: source: p95HER2-T47D cells (C2069, Crown Bioscience); cultured cells and orthotopic xenograft tumours in NSG mice

[2] = molecular target: T7, full-length HER2 (endogenous) (Homo sapiens, UniProt P04626); experiment: as above; conditions: one partner purified
T7 construct: human epidermal growth factor receptor 2 (HER2), full-length, on cells and in tissue sections; also called HER2 full-length; full-length HER2 receptor; source: endogenous, SK-BR-3 and A549 cells; endogenous, human breast carcinoma biopsy and normal human tissues

[3] = molecular target: T8, full-length HER2 in transduced MDA-MB-468 cells (Homo sapiens, UniProt P04626); experiment: as above; conditions: one partner purified
T8 construct: full-length HER2 expressed from the plasmid pBABEpuro-ERBB2; source: cultured cells and subcutaneous xenograft tumours

[4] = molecular target: T1, N-terminally truncated 20 mer without …; experiment: peptide or protein array; peptides immobilised on a cellulose membrane (PepSpots); Oslo-2 mAb 5 μg/mL in 5% nonfat skim milk, three hours at RT; HRP-conjugated secondary antibody, chemiluminescence; conditions: both partners purified
[5] = molecular target: T2, N-terminally truncated 20 mer without …; experiment: as above; conditions: both partners purified
[6] = molecular target: T3, N-terminally truncated 20 mer without …; experiment: as above; conditions: both partners purified
[7] = molecular target: T4, peptide 1 of the overlapping 15mer …; experiment: as above; conditions: both partners purified
[8] = molecular target: T5, 20 mer epitope peptide …; experiment: as above; conditions: both partners purified
[9] = molecular target: T9, extracellular domain of p95HER2 peptide with a poly-histidine-tag in the C-terminus (Homo sapiens); experiment: SPR; Oslo-2 mAb (5 μg/mL) covalently immobilised by amine coupling on a CM5 chip, anti-HER2 (cytopla-HER2) mAb on the reference flow cell; p95HER2 ECD peptide as analyte, 0.6 to 2500 nM; HBS-EP+ buffer; 25 °C; Biacore T200; global fit to the 1:1 bimolecular interaction model; conditions: both partners purified
T9 construct: printed with HHHHHH at the C-terminus; also called p95HER2 ECD peptide; source: synthetic peptide (GenScript); not shown: His6, C-terminal, kept

[10] = molecular target: T6, 611-CTF-p95HER2 (611-carboxy terminal …); experiment: flow cytometry on cells; monoclonal hybridoma supernatant (1:50 dilution) on cell lines, 30 min at 4 °C in FACS buffer, goat anti-rat-PE; conditions: partners not purified

Row | binding result [1] | binding result [2] | binding result [3] | binding result [4] | binding result [5] | binding result [6] | binding result [7] | binding result [8] | Kd [9] | binding result [10] | Binder
1 | binds | no binding (tested: 10 μg/mL) | no binding (tested: 10 μg/mL) | binds | binds | binds | binds | binds | 2 nM | – | Oslo-2 mAb (antibody, V domains shown, variable heavy domain; variable light domain; On the peptide membrane Oslo-2 was detected with a horse anti-mouse secondary antibody, so the constant regions may be mouse (surmise); also called Oslo-2 Ab; Oslo-2 (p95HER2) antibody) VH: EVQILETGGGLVKPGGSLRLSCATSGFNFNDYFMNWVRQAPGKGLEWIAQIRNKNYNYATYFAESLEGRFTISRDDSKSSVYLQVNSLRAEDTALYYCTELRYDYWGQGVMVTVSS VL: DIVMTQSPFSLAVSEGEMVTINCKSSQSLLSSGNQKNNLAWYQQKPGQSPKLLIYYASTRQSGVPDRFIGSGSGTDFTLTISDVQAEDLADYYCLQHYSSPYTFGAGTKLELK
2 | – | – | – | – | – | – | – | – | – | binds | mClone 1 (monoclonal hybridoma culture supernatant) (antibody, V domains shown, constant region of the rat hybridoma antibody; source: rat hybridoma (B-cells fused with Ag8 myeloma cells), sub-cloned by limited dilution, culture supernatant) VH: EVQILETGGGLVKPGGSLRLSCATSGFNFNDYFMNWVRQAPGKGLEWIAQIRNKNYNYATYFAESLEGRFTISRDDSKSSVYLQVNSLRAEDTALYYCTELRYDYWGQGVMVTVSS VL: DIVMTQSPFSLAVSEGEMVTINCKSSQSLLSSGNQKNNLAWYQQKPGQSPKLLIYYASTRQSGVPDRFIGSGSGTDFTLTISDVQAEDLADYYCLQHYSSPYTFGAGTKLELK
